Measurements: patent US20140120555A1 (PIERRE FABRE MEDICAMENT, published 2014)
Residue numbers refer to the chain shown, from its start. Names may count otherwise. Blank lines part the entries; values can stand above or below the binder they belong to.

Assays:
[1] = molecular target: T1, Recombinant mouse FcγRIII [CD16], Ala31-Thr215 with C-terminal 10-His tag (mouse, UniProt P08508 31-215); assay: SPR (Biacore X), Mab on CM4 chip, m-FcγRIII as analyte, Langmuïr model
T1 construct: Soluble form bought from R&D Systems; also called m-FcγRIII
T1 sequence: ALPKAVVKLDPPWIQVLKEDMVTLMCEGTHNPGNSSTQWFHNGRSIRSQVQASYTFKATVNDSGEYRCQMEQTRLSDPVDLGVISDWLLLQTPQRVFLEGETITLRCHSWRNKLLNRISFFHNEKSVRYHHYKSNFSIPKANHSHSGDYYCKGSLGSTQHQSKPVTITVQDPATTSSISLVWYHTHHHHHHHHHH
Description: (§1) 2017 RU of c515H7 Mab were immobilized using the amine coupling kit chemistry on the second flowcell (FC2) of a CM4 sensorchip. The first flowcell (FC1) activated by NHS and EDC mixture and des-activated by ethanolamine served as the reference surface to check and subtract the non specific interaction between the analyte (Fc gamma receptors) and the sensorchip matrix.
(§2) The kinetic experiments were carried out at 25° Celsius at a flow rate of 30 μl/min. The HBS-EP buffer was used either as the running buffer or for the preparation of analyte solutions. The analyte solutions were injected during 90 seconds (association phase) with a 90 seconds delay (dissociation phase). An injection of running buffer as analyte was used as a double reference. All the sensorgrams were corrected by this double reference sensorgram.
(§3) After each injection of the analyte, the sensorchip was regenerated by injection of 20 mM NaOH, 75 mM NaCl solution.

[2] = molecular target: T2, Recombinant mouse FcγRI [CD64], Gln25-Pro297 with C-terminal 6-His tag (mouse, UniProt P26151 25-297); assay: SPR (Biacore X): m-FcγRI injected over c515H7 Mab immobilized on a CM4 sensorchip; Langmuir model
T2 construct: range 25-297; Soluble form bought from R&D Systems; also called m-FcγRI
T2 sequence: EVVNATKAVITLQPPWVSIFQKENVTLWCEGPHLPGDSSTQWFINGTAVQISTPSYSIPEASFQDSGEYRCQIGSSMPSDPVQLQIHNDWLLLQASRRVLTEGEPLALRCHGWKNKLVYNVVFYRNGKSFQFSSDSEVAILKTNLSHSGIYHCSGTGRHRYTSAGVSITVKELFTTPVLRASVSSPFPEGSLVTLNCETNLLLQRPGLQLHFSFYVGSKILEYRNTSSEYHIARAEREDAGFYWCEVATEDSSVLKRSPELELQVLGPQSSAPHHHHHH
Description: as §1, §2, §3

[3] = molecular target: T2, Recombinant mouse FcγRI [CD64], …; assay: SPR (Biacore X), Mab on CM4 chip, m-FcγRI as analyte, heterogeneous ligand model, minor component; minor component (19%), lower end
Description: as §1, §2
(§4) According to this model, the c515H7 Mab Fc domain may be regarded as a mixture of two components.

[4] = molecular target: T2, Recombinant mouse FcγRI [CD64], …; assay: SPR (Biacore X), Mab on CM4 chip, m-FcγRI as analyte, heterogeneous ligand model, major component; major component (81%), higher value
Description: as §1, §2, §4

[5] = molecular target: T2, Recombinant mouse FcγRI [CD64], …; assay: SPR (Biacore X), Mab on CM4 chip, m-FcγRI as analyte, heterogeneous ligand model, major component
Description: as §1, with “1964” for “2017”, “hz515H7VH1D76NVL2” for “c515H7”
as §2
According to this model, the hz515H7VH1D76NVL2 Mab Fc domain may be regarded as a mixture of two components.

[6] = molecular target: T2, Recombinant mouse FcγRI [CD64], …; assay: SPR (Biacore X), Mab on CM4 chip, m-FcγRI as analyte, heterogeneous ligand model, minor component
Description: as §1, with “1964” for “2017”, “hz515H7VH1D76NVL2” for “c515H7”
as §2
(§5) After each injection of the analyte, the sensorchip was regenerated by injection of either 20 mM NaOH solution after h-FcγRI and m-FcγRIII or 10 mM NaOH after h-FcγRIIIA and m-FcγRI.

[7] = molecular target: T1, Recombinant mouse FcγRIII [CD16], …; assay: SPR (Biacore X): m-FcγRIII injected over hz515H7VH1D76NVL2 Mab immobilized on a CM4 sensorchip; Langmuir model
Description: as §1, with “1964” for “2017”, “hz515H7VH1D76NVL2” for “c515H7”
as §2
Using the Langmuïr model the constant of dissociation was around 17 and 18 nM.

[8] = molecular target: T2, Recombinant mouse FcγRI [CD64], …; assay: SPR (Biacore X): m-FcγRI injected over hz515H7VH1D76NVL2 Mab immobilized on a CM4 sensorchip; heterogeneous ligand model, minor component (18%)
Description: as §1, with “1964” for “2017”, “hz515H7VH1D76NVL2” for “c515H7”
as §2, §5

[9] = molecular target: T3, Recombinant human FcγRIIIA variant V [CD16a], Gln17-Gln208 with C-terminal 6-His tag (human, UniProt P08637 17-208); assay: SPR (Biacore X): h-FcγRIIIA injected over hz515H7VH1D76NVL2 Mab immobilized on a CM4 sensorchip; heterogeneous ligand model, minor component (21%)
T3 construct: range 17-208; 'variant V' is given without a position, so no substitution is written; also called h-FcγRIIIA
T3 sequence (P08637 other isoform, or with tags, fused parts or gaps mutant limits assumed, form in doubt): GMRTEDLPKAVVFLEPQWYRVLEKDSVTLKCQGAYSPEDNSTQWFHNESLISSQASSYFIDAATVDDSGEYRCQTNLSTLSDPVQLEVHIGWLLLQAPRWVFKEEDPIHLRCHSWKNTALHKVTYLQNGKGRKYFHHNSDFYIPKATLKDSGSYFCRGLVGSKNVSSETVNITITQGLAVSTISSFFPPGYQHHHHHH
Description: as §1, with “1964” for “2017”, “hz515H7VH1D76NVL2” for “c515H7”
as §2
Sensorgrams obtained with h-FcγRIIIA [FIG. 16] were clearly not fitted by the Langmuïr model (Chi2/Rmax>20%). […] According to this model, the hz515H7VH1D76NVL2 Mab Fc domain may be regarded as a mixture of two components. […] According to the literature, the heterogeneity observed with h-FcγRIIIA was probably linked to the glycosylation heterogeneity on the Mab Fc domain.

- Kd [1]: ~20 nM
- Kd [2]: 106 nM
- koff [2]: 0.0661 s⁻¹
- kon [2]: 622000 M⁻¹ s⁻¹
- Kd [3]: 32 to 37 nM
- Kd [4]: ~450 nM
B1: chimeric antibody c515H7 (antibody, human IgG1, kappa)
heavy: not shown
light: DIVMSQSPSSLAVSAGEKVTMSCKSSQSLFNSRTRKNYLAWYQQKPGQSPKLLIYWASARDSGVPARFTGSGSETYFTLTISRVQAEDLAVYYCMQSFNLRTFGGGTKLEIKRTVAAPSVFIFPPSDEQLKSGTASVVCLLNNFYPREAKVQWKVDNALQSGNSQESVTEQDSKDSTYSLSSTLTLSKADYEKHKVYACEVTHQGLSSPVTKSFNRGEC
notes: Human IgG1/kappa constant domains; also called c515H7 Mab; chimeric 515H7

- Kd [5]: 75 to 80 nM
- Kd [6]: ~90 nM
- Kd [7]: 17.4 nM
- koff [7]: 0.00364 s⁻¹
- kon [7]: 209000 M⁻¹ s⁻¹
- Kd [8]: 90.9 nM
- koff [8]: 0.022 s⁻¹
- kon [8]: 242000 M⁻¹ s⁻¹
- Kd [9]: 29.3 nM
- koff [9]: 0.0155 s⁻¹
- kon [9]: 529000 M⁻¹ s⁻¹
B2: humanized antibody Hz515H7 VH1 D76N VL2 (antibody, human IgG1, kappa)
heavy: not shown
light: B1 light with S5T, A15L, K18R, V19A, G105Q, L109V
notes: IgG1/kappa; also called hz515H7VL2; hz515H7-1
